Measurements: patent US9289468B2, “Fusion protein comprising circularly permuted form of trail/Apo2L, coding gene and use thereof” (Beijing Sunbio Biotech Co. Ltd., priority 2011, dated 2016)

Legend:
NCI-H460 cells = assay: Assay of killing activity on lung cancer cell line (crystal violet, IC50); format: cell-based, human
Procedure: The NCI-H460 cells (ATCC) were cultured in flasks until logarithmic growth phase, digested with 0.25% trypsin (Amresco), collected by centrifugation (1000 rpm, 5 min), resuspended in RPMI1640 medium (Invitrogen) containing 3% fetal bovine serum (FBS), counted and adjusted to 1.5×10^5/ml cell suspension, added into 96-well culture plates (Nunc) at 100 μl/well, and incubated at 37° C. in 5% CO2 incubator overnight. The sample to be tested was diluted to a certain concentration with 1640 medium containing 3% FBS, and further diluted at 4-fold dilutions (8 dilutions). The supernatant in the culture plate was discarded, and serial dilutions of the sample to be tested was added into the plate at 100 μl/well with a negative control and blank control set aside, incubated at 37° C. under 5% CO2 for 20-24 hours. Following examination under microscope, the supernatant was discarded, each well was added 50 μl 0.05% crystal violet solution (50 mg crystal violet was dissolved in 20 ml anhydrous ethanol, and water was added to the volume of 100 ml, then stored at room temperature) and stained for 3-5 minutes. The crystal violet was carefully washed with flowing water, the remaining water was removed by spin-drying, a destaining solution (50 ml distilled water, 50 ml anhydrous ethanol, and 0.1 ml glacial acetic acid were thoroughly mixed and stored at room temperature) was added at 100 μl/well, then the reading at OD570 was measured on a microplate reader (Bio-Rad 680) (reference wavelength of 630 nm). The inhibitory concentration 50 (IC50) of each sample was calculated by a four-parameter Logistic fitting using Sigmaplot10.0 software. The IC50 for CPT and each mutant of NCPT-1, NCPT-2, and NCPT-3 were calculated, and the activity change of each mutant was represented as a ratio of the IC50 of each mutant to that of CPT (Table 1).

H460 cells = assay: Time-effect relationship in killing lung cancer cell line (phase contrast morphology); format: cell-based, human; conditions: 50 ng/ml
Procedure: FIG. 1. Observation of the killing effect of NCPT-1.M1 on H460 cells under phase contrast microscope.
At 37° C., H460 cells (ATCC) were adherently cultured to logarithmic growth phase in RPMI1640 medium containing 10% FBS in cell culture flask in 5% CO2 incubator.

[1] = test system: human multiple myeloma cell RPMI 8226; assay: Morphological observation of induced apoptosis (MGG staining); format: cell-based; conditions: 200 ng/ml, 3 h
Procedure: FIG. 3. The morphological change of the apoptosis of human multiple myeloma cell RPMI 8226 induced by NCPT-1.M1. The cells were incubated with NCPT-1.M1 (200 ng/ml) for 3 h and then prepared as smears before MGG staining.
The RPMI 8226 cells (ATCC) were cultured in cell culture flasks until logarithmic growth phase, collected by centrifugation, resuspended with complete medium (10% FBS-RPMI1640) at 1×10^6/well, added into 6-well cell culture plate (Costar). The NCPT-1.M1 was diluted with complete medium, added to a final concentration of 200 ng/ml, incubated at 37° C. in 5% CO2 incubator for 3 h. The cells were collected, prepared as smears, fixed with methanol before May-Grünwald-Giemsa (MGG, May-Grünwald stain, commercial available from Beijing ZhongYe HengYuan Chemicals, Giemsa stain, commercial available from Solarbio) staining.

[2] = test system: human MM RPMI8226 tumor cells; assay: Apoptosis-inducing activity in vivo, RPMI8226 xenograft; parameters: species or system Balb/c nu athymic nude mice
Text: Athymic nude mice were subcutaneously inoculated with human MM RPMI8226 tumor cells and treated with NCPT-1.M1, then tumor tissue was resected and subjected to conventional HE staining (A, B) and TUNEL staining of apoptotic cells (C, D).
Balb/c nu athymic nude mice (Beijing Huafukang Biotechnology Co., Ltd.) were subcutaneously inoculated with human MM RPMI8226 tumor cells. When the tumor grew to the volume of 700-800 mm3, the mice were divided into a control group (n=3) and a CPT treatment group (n=3), and were intraperitoneally injected with control or NCPT-1.M1 at a dose of 15 mg/kg once a day for 3 consecutive days. On day 4, the tumor volumes were measured (method same as the above), all animals were sacrificed, the tumors were resected and fixed in 10% formaldehyde solution. The tumor tissues were embedded in paraffin, cut into sections, and HE stained following the conventional methods. The apoptotic assay of the paraffin-embedded tissue sections were carried out following instructions of TUNEL Apoptosis Detection Kit (ZK-8005, Beijing Zhongshan Golden Bridge Biotechnology Co., Ltd.). […] To the contrary, the nucleus of normal cells are light blue or blue (FIG. 7A). Upon TUNEL staining, the nuclei of apoptotic cells are stained as brown (FIG. 7D).

[3] = test system: NCI-H460 human lung tumor; assay: Combination with paclitaxel and carboplatin on human lung cancer xenograft tumor; format: in vivo, Balb/c nu athymic nude mice; conditions: H460 tumor nude mice
Procedure: 5-6 weeks old Balb/c nu athymic nude mice ♂ (provided by Institute of Experimental Animals, Chinese Academy of Medical Sciences) were subcutaneously inoculated with NCI-H460 human lung tumor. When the tumor grew to the size of about 150 mm3, the mice were divided into following and administered: normal saline control group (ip.), NCPT-1.M1 monotherapy group (15 mg/kg, i.p., once a day for 9 consecutive days), chemotherapy group (PC regimen: paclitaxel 30 mg/kg i.p. and carboplatin 60 mg/kg i.p., administered once on the first day), NCPT-1.M1 combination chemotherapy group (administration manner and dosage of each drug are same as the above). During the experiment, the tumor length diameter (a) and wide diameter (b) were measured every two days with a vernier caliper, and tumor volume (, TV) is calculated according to the following formula: TV=½×a×b^2. From the above, the relative tumor volume (RTV) was calculated according to following formula: RTV=Vt/V0. Wherein V0 is the tumor volume measured on the day of the administration, but before administration (i.e., d0), and Vt is the tumor volume measured every time. The relative tumor proliferation rate T/C (%) is used as an evaluation index.
T/C %=RTVT/RTVC*100%. (RTVT: RTV of the treatment group; […]: RTV of the negative control group).

[4] = NCPT-1.M1 15 mg/kg i.p. x9 days, paclitaxel 30 mg/kg, carboplatin 60 mg/kg i.p. once day 1

B1: NCPT-1.M1: MG+His6+NCPT-1 fusion protein, SEQ ID NO: 5 (protein)
chain: MGHHHHHHTLSSPNSKNEKALGRKINSWESSRSGHSFLSNLHLRNGELVIHEKGFYYIYSQTYFRFQEEIKENTKNDKQMVQYIYKYTSYPDPILLMKSARNSCWSKDAEYGLYSIYQGGIFELKENDRIFVSVTNEHLIDMDHEASFFGAFLVGGGGGGRVAAHITGTRGRSNT
modifications: NCPT-1.M1 polypeptide sequence
Ratio of IC50 of mutants to IC50 of CPT (H460 cells) (NCI-H460 cells; 20-24 hours, crystal violet): 0.1
killing activity compared to that of CPT (NCI-H460 cells; based on IC50): significantly higher than that of CPT
incubation time for appearance of morphological apoptosis changes (H460 cells): 1-2 h
incubation time resulting in apoptosis of maximum number of cells (H460 cells): 6 h
morphological features of apoptosis (MGG staining) [1]: obvious features of apoptosis were observed
average tumor volume after treatment ([2]; 15 mg/kg i.p. once a day for 3 consecutive days, day 4): 286 mm^3
apoptosis of tumor cells in tumor tissue (HE and TUNEL staining) ([2]; 15 mg/kg i.p. once a day for 3 days): can quickly result in apoptosis of a lot of MM tumor cells
average tumor volume before dosing ([2]; RPMI8226 xenograft, before dosing): 798 mm^3
Body weight(g) begining [3, 4]: 19.9 ± 3.08 g
Body weight(g) ending [3, 4]: 20.9 ± 3.32 g
RTV ([3]; same regimens): 7.32 ± 3.736
T/C ([3]; same regimens): 43.9%
Tumor size(mm^3) begining ([3]; same regimens, begining): 156 ± 82.6 mm^3
Tumor size(mm^3) ending ([3]; same regimens, ending): 867 ± 255.7 mm^3
